Results on twelve molecules are retold here after patent US20250353921A1 (ASTRIA THERAPEUTICS, published 2025).

Test [1] deals with T1, human OX40 (TNFRSF4, CD134) on cells (human, UniProt P43489 29-277).
T1 sequence: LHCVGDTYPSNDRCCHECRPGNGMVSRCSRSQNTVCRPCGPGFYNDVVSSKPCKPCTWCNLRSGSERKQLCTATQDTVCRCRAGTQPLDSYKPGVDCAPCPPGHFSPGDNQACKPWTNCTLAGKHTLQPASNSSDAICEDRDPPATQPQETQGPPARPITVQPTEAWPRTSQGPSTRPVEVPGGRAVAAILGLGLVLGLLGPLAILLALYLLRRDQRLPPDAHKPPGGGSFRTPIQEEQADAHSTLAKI
The test is described as follows: cell-based or functional assay.

The target of test [2] is T1, human OX40 (TNFRSF4, CD134) on cells. The test is described as follows: cell-based or functional assay. This is another data set of the same source.
For test [3] the target is unchanged. The test is described as follows: flow cytometry on Jurkat-NFκB (OX40) cells, detection with anti-human IgG Fc-AF647. On the technique in general: A flow cytometer gives signals particle by particle.
Test [4] concerns the target Human CD64 (FcγRI), Sino Biological 10256-H08H (human, UniProt P12314 16-288). The test is described as follows: SPR Biacore 8K+, receptor captured by anti-His, antibody as analyte. For orientation: Surface plasmon resonance follows binding to a sensor surface in real time, without labels.
Method: (§1) Measurements were performed on a Biacore 8K+ instrument (Cytiva Life Sciences) using the Biacore 8K+ Control Software and analyzed with the Biacore Insight Evaluation Software (v3.0). […] After each binding event, baseline levels were restored using a regeneration solution on both flow-paths. HBS-EP+pH 7.4 solution were used as running buffer. Data was analyzed using the MCK evaluation method of the Biacore Insight Evaluation Software and kinetic parameters were determined using the 1:1 binding and steady-state affinity methods.
(§2) Each measurement is the mean of three identical replicate conditions.
For test [5], the target named is T2, Human CD16a (176F), Sino Biological 10389-H08H (human, UniProt P08637 17-208).
T2 construct: also called FcγRIIIa176F
T2 sequence (P08637 17-208 limits assumed): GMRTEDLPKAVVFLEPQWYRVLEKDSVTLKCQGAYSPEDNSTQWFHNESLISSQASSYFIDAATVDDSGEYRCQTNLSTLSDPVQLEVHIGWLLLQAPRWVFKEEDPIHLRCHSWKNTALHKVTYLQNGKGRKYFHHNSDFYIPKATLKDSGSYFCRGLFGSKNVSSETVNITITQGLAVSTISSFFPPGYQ
Described as above.
Method: as §1, §2

In test [6] the target is T3, Human CD16a (F176V), Sino Biological 10389-H08H1 (human, UniProt P08637 17-208).
T3 construct: also called FcγRIIIa176V
T3 sequence (P08637 17-208 F176V limits assumed): as the sequence (P08637 17-208 limits assumed) above, with F160V counted along it
The description is as above.
Method: as §1, §2

Test [7] addresses T4, Human CD16b (NA2 allotype), Sino Biological 11046-H08H (human, UniProt O75015 17-200).
T4 construct: also called FcγRIIIb
The description is as above.
Method: as §1, §2

The target of test [8] is T5, Human CD32a (167 Arg), Sino Biological 10374-H08H (human, UniProt P12318 34-218).
T5 construct: also called FcγRIIa167R
T5 sequence (looked up): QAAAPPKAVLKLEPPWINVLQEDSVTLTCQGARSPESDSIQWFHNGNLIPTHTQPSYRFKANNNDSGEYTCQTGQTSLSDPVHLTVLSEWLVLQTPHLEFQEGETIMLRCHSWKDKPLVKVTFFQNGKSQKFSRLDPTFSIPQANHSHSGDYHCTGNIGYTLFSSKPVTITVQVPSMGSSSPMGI
Described as above.
Method: as §1, §2

Test [9] addresses T6, Human CD32a (167 His), Sino Biological 10374-H08H1 (human, UniProt P12318 34-218).
T6 construct: also called FcγRIIa167H
T6 sequence (looked up): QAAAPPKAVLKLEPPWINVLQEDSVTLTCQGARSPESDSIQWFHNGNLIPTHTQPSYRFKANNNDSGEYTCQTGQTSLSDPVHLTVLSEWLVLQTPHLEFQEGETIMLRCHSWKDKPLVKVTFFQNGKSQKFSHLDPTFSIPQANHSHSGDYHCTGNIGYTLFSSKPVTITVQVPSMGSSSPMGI
Described as above.
Method: as §1, §2

Test [10] has as its target T7, Human CD32b, Sino Biological 10259-H08H (human, UniProt P31994 43-217).
T7 construct: also called FcγRIIb
T7 sequence (looked up): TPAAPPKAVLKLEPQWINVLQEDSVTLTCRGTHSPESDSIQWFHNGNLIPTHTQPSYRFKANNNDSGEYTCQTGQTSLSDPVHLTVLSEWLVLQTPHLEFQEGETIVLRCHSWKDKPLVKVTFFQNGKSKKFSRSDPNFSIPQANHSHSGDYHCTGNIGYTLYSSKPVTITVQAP
Described as above.
Method: as §1, §2

For another test, the target named is T8, human OX40-ECD-his (human, UniProt P43489 29-214).
T8 construct: whole entry named
T8 sequence: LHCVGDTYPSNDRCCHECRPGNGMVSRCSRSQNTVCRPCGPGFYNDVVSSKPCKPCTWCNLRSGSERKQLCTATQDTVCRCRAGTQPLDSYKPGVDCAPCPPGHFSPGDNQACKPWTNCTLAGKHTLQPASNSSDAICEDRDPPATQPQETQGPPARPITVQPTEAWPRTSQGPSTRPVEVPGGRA
The test is described as follows: ELISA, scFv supernatant on coated human OX40-ECD-his, anti-c-myc detection. In general terms: In an ELISA, binding on a coated surface is turned into a signal by an enzyme label.

Human CD64 (FcγRI), Sino Biological 10256-H08H, sequence (P12314 16-288 limits assumed): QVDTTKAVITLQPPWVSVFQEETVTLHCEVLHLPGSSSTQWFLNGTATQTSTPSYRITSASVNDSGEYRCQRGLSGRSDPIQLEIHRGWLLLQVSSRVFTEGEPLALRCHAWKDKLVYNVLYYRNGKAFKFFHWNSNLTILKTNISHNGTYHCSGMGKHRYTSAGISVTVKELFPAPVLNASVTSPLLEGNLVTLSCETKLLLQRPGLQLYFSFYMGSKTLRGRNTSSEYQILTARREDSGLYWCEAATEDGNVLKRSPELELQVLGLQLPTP
T4 sequence (O75015 17-200 N65S limits assumed): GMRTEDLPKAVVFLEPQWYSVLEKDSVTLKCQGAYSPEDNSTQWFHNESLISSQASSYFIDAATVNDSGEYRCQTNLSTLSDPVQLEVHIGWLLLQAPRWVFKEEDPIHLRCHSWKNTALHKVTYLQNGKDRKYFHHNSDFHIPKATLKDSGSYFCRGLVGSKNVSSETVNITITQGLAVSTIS
Method for human OX40-ECD-his: The binding of scFv clones was assessed by ELISA. Individual E. coli colonies from the second round of selection were picked and grown in 2YT ampicillin medium (96-well deep well plates). ScFv expression was induced by addition of 1 mM of IPTG and incubation ON at 30° C. and 250 RPM. Cells were centrifuged and culture supernatant were used for screening. RIA/EIA plates were coated with either 200 ng/well of human OX40-ECD-his or cynomolgus OX40-ECD-Fc. In order to discriminate potential antibodies selected against the Fc fragment, a plate was also coated with an irrelevant Fc fused antigen. The plates were then blocked with PBS supplemented with 3% Bovine Serum Albumin (BSA). 80 μL of bacteria culture supernatants were then mixed with 20 μl of 3% BSA and added to the blocked plates for 1 hr at room temperature. Bound scFvs were detected using a biotinylated chicken anti-c-myc antibody diluted 1:5000 in PBS-0.3% BSA incubated for 1 hr at RT, followed by staining with the Pierce High Sensitivity Streptavidin-HRP reagent diluted 1:8000 in PBS-0.3% BSA for 30 min at RT. Plates were extensively washed using PBS supplemented with 0.05% Tween 20 between each incubation step. […] Clones that bound specifically to both human and cynomolgus OX40 but not to irrelevant antigen-Fc fusion protein were DNA sequenced.

B1: OX40L (recombinant human OX40 ligand) (ligand, UniProt P23510 51-183, looked up)
chain: QVSHRYPRIQSIKVQFTEYKKEKGFILTSQKEDEIMKVQNNSVIINCDGFYLISLKGYFSQEVNISLHYQKDEEPLFQLKKVRSVNSLMVASLTYKDKVYLNVTTDNTSLDDFHVNGGELILIHQNPGEFCVL
B1: in test [1], the “luminescence, Jurkat-NFκB-OX40 agonism assay” value came to 8 fold. In addition, in [2], the “average proliferation index (Av), coated T cell agonism assay” value is 5.61.

B2: OX40L (P865) (Fc fusion, human, UniProt P23510 51-183, looked up)
OX40L-Fc chain: QVSHRYPRIQSIKVQFTEYKKEKGFILTSQKEDEIMKVQNNSVIINCDGFYLISLKGYFSQEVNISLHYQKDEEPLFQLKKVRSVNSLMVASLTYKDKVYLNVTTDNTSLDDFHVNGGELILIHQNPGEFCVL
notes: the sheet prints OX40L (P865) in the legend box and OX40L (P685) beside the curve; also called OX40L-Fc; OX40L (P685)
In general, EC50 (read off the curve) refers to the concentration needed to bring the measured effect to its halfway point. Higher therefore signals lower potency in that assay. B2: in [3], the “EC50 (read off the curve)” value was ~0.2 µg/mL.

B3: MAB11 (antibody, human IgG1, kappa)
heavy: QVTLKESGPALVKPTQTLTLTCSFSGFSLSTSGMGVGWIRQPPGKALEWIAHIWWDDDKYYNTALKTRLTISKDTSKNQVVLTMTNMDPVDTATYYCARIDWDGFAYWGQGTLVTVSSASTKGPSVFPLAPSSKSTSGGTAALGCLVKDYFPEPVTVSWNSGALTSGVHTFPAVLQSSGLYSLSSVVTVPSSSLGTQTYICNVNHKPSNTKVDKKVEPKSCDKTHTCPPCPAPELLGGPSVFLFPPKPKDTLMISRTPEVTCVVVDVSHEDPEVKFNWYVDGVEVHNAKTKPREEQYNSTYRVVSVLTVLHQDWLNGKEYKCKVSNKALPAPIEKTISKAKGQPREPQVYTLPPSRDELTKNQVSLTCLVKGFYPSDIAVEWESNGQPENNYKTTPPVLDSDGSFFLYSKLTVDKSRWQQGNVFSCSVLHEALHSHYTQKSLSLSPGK
light: EIVLTQSPATLSLSPGERATLSCRASSSVSYMHWYQQKPGQAPRPWIYATSNRATGIPARFSGSGSGTDYTLTISSLEPEDFAVYYCQQFGAWPWTFGQGTKVEIKRTVAAPSVFIFPPSDEQLKSGTASVVCLLNNFYPREAKVQWKVDNALQSGNSQESVTEQDSKDSTYSLSSTLTLSKADYEKHKVYACEVTHQGLSSPVTKSFNRGEC
notes: IgG1 with M428L and N434S; also called MAB1 Heavy Chain + LS
As a reminder, the Kd is the free concentration of one partner at which half of the binding sites on the other are occupied at equilibrium, for simple one-to-one binding. A higher Kd goes with lower affinity. Regarding B3, the Kd in [4] was found to be 0.0063 µM; in test [5], 0.246 µM; in test [6], 0.221 µM; in [7], 2.74 µM; in test [8], 5.43 µM; in test [9] it was 3.38 µM. The same molecule registered a Kd in test [10] of 9.88 µM.

B4: MAB8 scFv clone (scFv)
scFv: QVTLKESGPALVKPTQTLTLTCSFSGFSLSTSGMGVGWIRQPPGKALEWIAHIWWDDDKYYNTALKTRLTISKDTSKNQVVLTMTNMDPVDTATYYCARIDWDGFAYWGQGTLVTVSSGGGGSGGGGSGGGGSEIVLTQSPATLSLSPGERATLSCRASSSVSYMHWYQQKPGQAPRPWIYATSNRATGIPARFSGSGSGTDYTLTISSLEPEDFAVYYCQQTVAWPWTFGQGTKVEIK
For the molecule B4, in the test with human OX40-ECD-his, the binding result is “binds”.

B5: MAB4 scFv clone (scFv)
scFv: QVTLKESGPALVKPTQTLTLTCSFSGFSLSTSGMGVGWIRQPPGKALEWIAHIWWDDDKYYNTALKTRLTISKDTSKNQVVLTMTNMDPVDTATYYCARIDWDGFAYWGQGTLVTVSSGGGGSGGGGSGGGGSEIVLTQSPATLSLSPGERATLSCRASSSVSYMHWYQQKPGQAPRPWIYATSNRATGIPARFSGSGSGTDYTLTISSLEPEDFAVYYCQQTLLFPWTFGQGTKVEIK
Regarding B5, the binding result with human OX40-ECD-his was “binds”.

B6: MAB3 scFv clone (scFv)
scFv: QVTLKESGPALVKPTQTLTLTCSFSGFSLSTSGMGVGWIRQPPGKALEWIAHIWWDDDKYYNTALKTRLTISKDTSKNQVVLTMTNMDPVDTATYYCARIDWDGFAYWGQGTLVTVSSGGGGSGGGGSGGGGSEIVLTQSPATLSLSPGERATLSCRASSSVSYMHWYQQKPGQAPRPWIYATSNRATGIPARFSGSGSGTDYTLTISSLEPEDFAVYYCQQTIEWPWTFGQGTKVEIK
On to B6, for which the binding result with human OX40-ECD-his is “binds”.

B7: MAB7 scFv clone (scFv)
scFv: QVTLKESGPALVKPTQTLTLTCSFSGFSLSTSGMGVGWIRQPPGKALEWIAHIWWDDDKYYNTALKTRLTISKDTSKNQVVLTMTNMDPVDTATYYCARIDWDGFAYWGQGTLVTVSSGGGGSGGGGSGGGGSEIVLTQSPATLSLSPGERATLSCRASSSVSYMHWYQQKPGQAPRPWIYATSNRATGIPARFSGSGSGTDYTLTISSLEPEDFAVYYCQQMEFTPWTFGQGTKVEIK
For the molecule B7, the binding result in the test with human OX40-ECD-his is reported as “binds”.

B8: MAB6 scFv clone (scFv)
scFv: QVTLKESGPALVKPTQTLTLTCSFSGFSLSTSGMGVGWIRQPPGKALEWIAHIWWDDDKYYNTALKTRLTISKDTSKNQVVLTMTNMDPVDTATYYCARIDWDGFAYWGQGTLVTVSSGGGGSGGGGSGGGGSEIVLTQSPATLSLSPGERATLSCRASSSVSYMHWYQQKPGQAPRPWIYATSNRATGIPARFSGSGSGTDYTLTISSLEPEDFAVYYCQQWETWPWTFGQGTKVEIK
As to B8, the binding result in the test with human OX40-ECD-his is “binds”.

B9: MAB1 scFv clone (scFv)
scFv: QVTLKESGPALVKPTQTLTLTCSFSGFSLSTSGMGVGWIRQPPGKALEWIAHIWWDDDKYYNTALKTRLTISKDTSKNQVVLTMTNMDPVDTATYYCARIDWDGFAYWGQGTLVTVSSGGGGSGGGGSGGGGSEIVLTQSPATLSLSPGERATLSCRASSSVSYMHWYQQKPGQAPRPWIYATSNRATGIPARFSGSGSGTDYTLTISSLEPEDFAVYYCQQFGAWPWTFGQGTKVEIK
notes: Phage library scFv in bacterial culture supernatant
Take B9: the binding result with human OX40-ECD-his was “binds”.

B10: MAB9 scFv clone (scFv)
scFv: QVTLKESGPALVKPTQTLTLTCSFSGFSLSTSGMGVGWIRQPPGKALEWIAHIWWDDDKYYNTALKTRLTISKDTSKNQVVLTMTNMDPVDTATYYCARIDWDGFAYWGQGTLVTVSSGGGGSGGGGSGGGGSEIVLTQSPATLSLSPGERATLSCRASSSVSYMHWYQQKPGQAPRPWIYATSNRATGIPARFSGSGSGTDYTLTISSLEPEDFAVYYCQAASSSSLEFGQGTKVEIK
As to B10, in the test with human OX40-ECD-his, the binding result is “binds”.

B11: MAB2 scFv clone (scFv)
scFv: QVTLKESGPALVKPTQTLTLTCSFSGFSLSTSGMGVGWIRQPPGKALEWIAHIWWDDDKYYNTALKTRLTISKDTSKNQVVLTMTNMDPVDTATYYCARIDWDGFAYWGQGTLVTVSSGGGGSGGGGSGGGGSEIVLTQSPATLSLSPGERATLSCRASSSVSYMHWYQQKPGQAPRPWIYATSNRATGIPARFSGSGSGTDYTLTISSLEPEDFAVYYCQQFGDPPWTFGQGTKVEIK
For the molecule B11, in the test with human OX40-ECD-his, the binding result is “binds”.

B12: MAB5 scFv clone (scFv)
scFv: QVTLKESGPALVKPTQTLTLTCSFSGFSLSTSGMGVGWIRQPPGKALEWIAHIWWDDDKYYNTALKTRLTISKDTSKNQVVLTMTNMDPVDTATYYCARIDWDGFAYWGQGTLVTVSSGGGGSGGGGSGGGGSEIVLTQSPATLSLSPGERATLSCRASSSVSYMHWYQQKPGQAPRPWIYATSNRATGIPARFSGSGSGTDYTLTISSLEPEDFAVYYCQQTLHYPWTFGQGTKVEIK
B12: the binding result in the test with human OX40-ECD-his is on record as “binds”.
